Here are results for one substance from PMC9680732.

The target of this test is singly biotinylated A20 zinc finger 4 (ZnF4: S592-K635) (human) (UniProt P21580). The experiment in a line: BLI. Background: BLI is a label-free optical method that tracks binding on a fibre tip over time.

The Kd is the concentration at which binding is half-saturated. A higher Kd goes with weaker binding.

Sequence of singly biotinylated A20 zinc finger 4 (ZnF4: S592-K635) (human) (P21580 592-635): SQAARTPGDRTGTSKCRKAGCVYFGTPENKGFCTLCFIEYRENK

Take “K63-linked triubiquitin (from UniProt P0CG48 1-76)”: the Kd came out at 2000 nM.
